Test results from the FLAb antibody collection (doi:10.7554/elife.23156).

B1: scFv; the commonest letter at each place (parent)
chain 1: EVKLDETGGGLVQPGRPMKLSCVASGFTFSDYWMNWVRQSPEKGLEWVAQIRNKPYNYETYYSDSVKGRFTISRDDSKSSVYLQMNNLRVEDMGIYYCTGSYYGMDYWGQGTSVTVS
chain 2: DVVMTQTPLSLPVSLGDQASISCRSSQSLVHSNGNTYLRWYLQKPGQSPKVLIYKVSNRFSGVPDRFSGSGSGTDFTLKISRVEAEDLGVYFCSQSTHVPWTFGGGTKLEIK

Columns and labels:
[1] = variants of: B1; assay: Kd (Tite-Seq); details: with fluorescein; format: scFv 4-4-20, heavy + light
[2] = variants of: B1; assay: yeast surface expression (ratio to wild type); higher = more expressed; details: format: scFv 4-4-20, heavy + light

| Kd [1] | Variant | yeast surface expression [2] |
| --- | --- | --- |
| ≥ 10 µM | chain 1 S101M Y107H | 0.483 |
| ≥ 10 µM | chain 1 W33I | 0.854 |
| 0.00325 µM | chain 1 T28R D31K | 0.833 |
| ≥ 10 µM | chain 1 M34Q V37T | 0.629 |
| ≥ 10 µM | chain 1 M105Q G109Y | 0.231 |
| ≥ 10 µM | chain 1 G104L Y107C | 0.133 |
| 0.00468 µM | chain 1 S30H D31K | 0.668 |
| 0.00251 µM | chain 1 Y102S M105K | 1.02 |
| ≥ 10 µM | chain 1 Y102K Y103L G104F | 0.545 |
| ≥ 10 µM | chain 1 D106G Y107S | 0.474 |
| ≥ 10 µM | chain 1 F29Y D31E W33G | 1.63 |
| ≥ 10 µM | chain 1 T28H M34H V37R | 2.76 |
| ≥ 10 µM | chain 1 M105R Y107G | 0.615 |
| ≥ 10 µM | chain 1 M34Y N35V | 0.434 |
| 0.00184 µM | chain 1 M34I V37M | 0.847 |
| ≥ 10 µM | chain 1 F29S D31W | 0.756 |
| ≥ 10 µM | chain 1 Y103M D106F Y107G | 0.265 |
| ≥ 10 µM | chain 1 F29L N35T | 0.76 |
| 0.0113 µM | chain 1 T28C D31Q | 0.575 |
| ≥ 10 µM | chain 1 D31M W36A | 1.72 |
| ≥ 10 µM | chain 1 Y102V G104K | 0.494 |

Further lines, the variant ahead of its results:

| Variant | Kd [1] | yeast surface expression [2] |
| --- | --- | --- |
| chain 1 T28W S30A | 0.00444 µM | 0.868 |
| chain 1 M34N W36E | ≥ 10 µM | 0.587 |
| chain 1 Y103L D106P | ≥ 10 µM | 0.559 |
| chain 1 G104Y G109T | ≥ 10 µM | 0.0981 |
| chain 1 G100E D106H | ≥ 10 µM | 0.289 |
| chain 1 F29Y M34Q V37M | 4.37 µM | 0.485 |
| chain 1 D31K W36T | ≥ 10 µM | 0.343 |
| chain 1 T28L V37Q | 0.0102 µM | 0.731 |
| chain 1 G100R G109C | ≥ 10 µM | 0.173 |
| chain 1 S30E W33Q | ≥ 10 µM | 0.96 |
| chain 1 F29L D31S | 0.972 µM | 0.743 |
| chain 1 G109N | ≥ 10 µM | 0.622 |
| chain 1 Y103T G104Q | ≥ 10 µM | 0.9 |
| chain 1 M34A N35I | ≥ 10 µM | 0.267 |
| chain 1 Y103Q W108A | 0.712 µM | 0.644 |
| chain 1 F29V W33N | ≥ 10 µM | 0.722 |
| chain 1 Y103S W108R | ≥ 10 µM | 0.441 |
| chain 1 Y102D W108T | 0.00917 µM | 0.785 |
| chain 1 M105Y W108N | ≥ 10 µM | 0.301 |

| Variant | Kd [1] | yeast surface expression [2] |
| --- | --- | --- |
| chain 1 T28P W36P | ≥ 10 µM | 0.295 |
| chain 1 S30Q | 0.000938 µM | 1.12 |
| chain 1 N35S W36Y | ≥ 10 µM | 0.787 |
| chain 1 G100I Y107P W108I | ≥ 10 µM | 0.471 |
| chain 1 W33Q W36T | ≥ 10 µM | 0.706 |
| chain 1 G100D M105Y | ≥ 10 µM | 0.228 |
| chain 1 S30C W33Y | ≥ 10 µM | 1.04 |
| chain 1 S101D W108A | ≥ 10 µM | 0.443 |
| chain 1 S30F N35H | ≥ 10 µM | 0.53 |
| chain 1 Y32M M34Q | ≥ 10 µM | 0.437 |
| chain 1 D106L | ≥ 10 µM | 0.466 |
| chain 1 D106G | ≥ 10 µM | 0.655 |
| chain 1 Y103S G104D | ≥ 10 µM | 1.12 |
| chain 1 G100M G104C | ≥ 10 µM | 0.544 |
| chain 1 G100K G109V | ≥ 10 µM | 0.188 |
| chain 1 W33N M34F | ≥ 10 µM | 0.815 |
| chain 1 S30N W36C | ≥ 10 µM | 0.445 |
| chain 1 N35F V37A | ≥ 10 µM | 0.871 |
